Reference: the supplement of paper PMC7877785
± gives the uncertainty stated by the source.

Experiment: self-splicing fitness, log relative to wild type (ln ratio); higher = more splicing; Tetrahymena group I intron in knt gene, E. coli kanamycin selection, DiMSum; sequences stand for … in CUCUCU…GGAGGGAAAAGUUAUCAGGCAUGCACCUGGUAGCUAGUCUUUAAACCAAUAGAUUGCAUCGGUUUAAAAGGCAAGACCGUCAAAUUGCGGGAAAGGGGUCAACAGCCGUUCAGUACCAAGUCUCAGGGGAAACUUUGAGAUGGCCUUGCAAAGGGUAUGGUAAUAAGCUGACGGACAUGGUCCUAACCACGCAGCCAAGUCCUAAGUCAACAGAUCUUCUGUUGAUAUGGAUGCAGUUCACAGACUAAAUGUCGGUCGGGGAAGAUGUAUUCUUCUCAUAAGAUAUAGUCGGACCUCUCCUUAAUGGGAGCUAGCGGAUGAAGUGAUGCAACACUGGAGCCGCUGGGAACUAAUUUGUAUGCGAAAGUAUAUUGAUUAGUUUUGGAGUACUCGUGGUCG
Procedure, shortened: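 The eight P1ex-region nucleotides of an intron in the knt kanamycin-resistance gene on pET-22b(+) were all randomised and the library put into E. coli BL21(DE3). Six replicate transformations were grown overnight at 37°C or 30°C on LB agar with or without 25 μg/mL kanamycin, together with 100 μg/mL carbenicillin, 50 μM IPTG and 0.2% rhamnose. Colonies were pooled and amplicon-sequenced on an Illumina HiSeq 2500. Fitness from DiMSum is the error-weighted combination of wild-type-normalised replicate fold changes, kanamycin over none.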

Sequence	self-splicing fitness (ln) (30 °C)	self-splicing fitness (ln) (37 °C)
GCUUAGCAAUAUUACGGUGA	-1.46 ± 0.092	-1.75 ± 0.1
AACCAGCAAUAUUACGCUCC	-0.493 ± 0.094	-0.0692 ± 0.12
GGCUAGCAAUAUUACGGGCG	-1.34 ± 0.095	-0.19 ± 0.12
CAACAGCAAUAUUACGUCCG	-0.0787 ± 0.06	0.513 ± 0.076
AAAAAGCAAUAUUACGAAUU	-1.3 ± 0.072	-1.13 ± 0.089
GGACAGCAAUAUUACGCCCU	-3.25 ± 0.2	-0.306 ± 0.14
CUUAAGCAAUAUUACGGAAC	–	-1.89 ± 0.3
UCAUAGCAAUAUUACGGCGC	-2.63 ± 0.31	–
CUCCAGCAAUAUUACGAUAU	-2.46 ± 0.19	-2.95 ± 0.47
GUGUAGCAAUAUUACGUGCG	-1.8 ± 0.18	-0.374 ± 0.19
AGUCAGCAAUAUUACGAUAU	-0.289 ± 0.096	0.475 ± 0.11
GGGGAGCAAUAUUACGCACA	-2.37 ± 0.43	-0.994 ± 0.34
CCCGAGCAAUAUUACGGCGU	-2.83 ± 0.13	-1.71 ± 0.13
UCUGAGCAAUAUUACGGCAA	-2.44 ± 0.4	-1.8 ± 0.35
GACUAGCAAUAUUACGCUCG	-1.01 ± 0.14	-0.0622 ± 0.19
UUUAAGCAAUAUUACGCACU	-0.382 ± 0.1	-0.128 ± 0.12
